From the supplement of paper PMC11246515
± gives the standard deviation of the averaged measurements.

Assay: total protein half-life in vivo (active degradation + dilution); higher = more stable protein
[1] = E. coli NCM3722 delta-clpP delta-lon delta-hslV, growth: N-lim chemostat, doubling time 6 h
[2] = E. coli NCM3722 delta-clpP, growth: N-lim chemostat, doubling time 6 h
[3] = E. coli NCM3722 delta-hslV, growth: N-lim chemostat, doubling time 6 h
[4] = E. coli NCM3722 delta-lon, growth: N-lim chemostat, doubling time 6 h
[5] = E. coli NCM3722 delta-smpB, growth: N-lim chemostat, doubling time 6 h
[6] = wild type E. coli NCM3722, growth: C-lim chemostat, doubling time 3 h
[7] = wild type E. coli NCM3722, growth: C-lim chemostat, doubling time 6 h
[8] = wild type E. coli NCM3722, growth: C-lim chemostat, doubling time 12 h
[9] = wild type E. coli NCM3722, growth: N-lim chemostat, doubling time 6 h
[10] = wild type E. coli NCM3722, growth: N-lim chemostat, doubling time 12 h
[11] = wild type E. coli NCM3722, growth: P-lim chemostat, doubling time 6 h
[12] = wild type E. coli NCM3722, growth: P-lim chemostat, doubling time 12 h

Sequence	total protein half-life in vivo [1]	total protein half-life in vivo [2]	total protein half-life in vivo [3]	total protein half-life in vivo [4]	total protein half-life in vivo [5]	total protein half-life in vivo [6]	total protein half-life in vivo [7]	total protein half-life in vivo [8]	total protein half-life in vivo [9]	total protein half-life in vivo [10]	total protein half-life in vivo [11]	total protein half-life in vivo [12]
MAFKFKTFAAVGALIGSLALVGCGQDEKDPNHIKVGVIVGAEQQVAEVAQKVAKDKYGLDVELVTFNDYVLPNEALSKGDIDANAFQHKPYLDQQLKDRGYKLVAVGNTFVYPIAGYSKKIKSLDELQDGSQVAVPNDPTNLGRSLLLLQKVGLIKLKDGVGLLPTVLDVVENPKNLKIVELEAPQLPRSLDDAQIALAVINTTYASQIGLTPAKDGIFVEDKESPYVNLIVTREDNKDAENVKKFVQAYQSDEVYEAANKVFNGGAVKGW	5.86 ± 0.32 h	6.85 ± 0.96 h	6.15 ± 0.22 h	6.95 ± 0.8 h	5.84 ± 0.36 h	3.04 ± 0.097 h	6.52 ± 0.23 h	11.6 ± 0.54 h	5.85 ± 0.088 h	12.69 ± 0.014 h	5.99 ± 0.093 h	13 ± 0.76 h
MIAEFESRILALIDGMVDHASDDELFASGYLRGHLTLAIAELESGDDHSAQAVHTTVSQSLEKAIGAGELSPRDQALVTDMWENLFQQASQQ	4.91 ± 0.31 h	3.35 ± 0.41 h	2.9 ± 0.23 h	3.81 ± 0.062 h	2.1 ± 0.046 h	2.2 ± 0.23 h	3.39 ± 0.1 h	4.87 ± 0.25 h	2.71 ± 0.54 h	3.79 h	2.75 ± 0.83 h	4.58 ± 0.62 h
MSQKTLFTKSALAVAVALISTQAWSAGFQLNEFSSSGLGRAYSGEGAIADDAGNVSRNPALITMFDRPTFSAGAVYIDPDVNISGTSPSGRSLKADNIAPTAWVPNMHFVAPINDQFGWGASITSNYGLATEFNDTYAGGSVGGTTDLETMNLNLSGAYRLNNAWSFGLGFNAVYARAKIERFAGDLGQLVAGQIMQSPAGQTQQGQALAATANGIDSNTKIAHLNGNQWGFGWNAGILYELDKNNRYALTYRSEVKIDFKGNYSSDLNRAFNNYGLPIPTATGGATQSGYLTLNLPEMWEVSGYNRVDPQWAIHYSLAYTSWSQFQQLKATSTSGDTLFQKHEGFKDAYRIALGTTYYYDDNWTFRTGIAFDDSPVPAQNRSISIPDQDRFWLSAGTTYAFNKDASVDVGVSYMHGQSVKINEGPYQFESEGKAWLFGTNFNYAF	6.74 ± 1.8 h	–	–	–	5.52 ± 0.67 h	3.2 ± 0.064 h	6.165 ± 0.014 h	10.9 ± 0.23 h	6.3 ± 0.37 h	11.1 ± 0.23 h	6.09 ± 0.34 h	12.2 ± 1.2 h
